Among the data in paper PMC12310515 are Kd values, retold here.

The test has as its target RBK21 variable region (residues 148-299) (P. falciparum (field isolate Lek174)). In words: SPR. Background: SPR reads the build-up and loss of mass on a sensor chip optically.

Chain of KIR2DL1 (residues 27-221) (P43626 27-221): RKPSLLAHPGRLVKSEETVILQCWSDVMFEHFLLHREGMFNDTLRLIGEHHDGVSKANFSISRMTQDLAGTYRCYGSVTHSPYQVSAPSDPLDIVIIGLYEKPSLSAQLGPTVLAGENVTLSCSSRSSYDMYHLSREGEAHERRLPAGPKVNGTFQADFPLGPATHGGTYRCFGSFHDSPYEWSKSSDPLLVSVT
Chain of KIR2DS1 (SPR protein) (Q14954 22-245): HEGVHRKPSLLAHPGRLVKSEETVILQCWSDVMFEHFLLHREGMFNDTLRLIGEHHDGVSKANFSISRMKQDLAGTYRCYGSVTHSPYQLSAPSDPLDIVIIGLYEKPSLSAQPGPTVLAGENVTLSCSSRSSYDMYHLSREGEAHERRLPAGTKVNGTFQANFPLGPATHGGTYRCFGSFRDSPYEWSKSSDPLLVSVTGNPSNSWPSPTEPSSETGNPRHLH

For “KIR2DL1 (residues 27-221) (from UniProt P43626 27-221) (domain or fragment)”, the Kd amounted to 500 nM.

As to “KIR2DS1 (SPR protein) (from UniProt Q14954) (receptor)”, the Kd is 1700 nM.

In general, Kd refers to the free concentration of one partner at which half of the binding sites on the other are occupied at equilibrium, for simple one-to-one binding.
